According to patent publication US20140193915, “COMPOSITIONS AND METHODS FOR CUSTOM SITE-SPECIFIC DNA RECOMBINASES” (Monsanto Technology, LLC, published 2014):

T1: pN-TALER N3.2 (synthetic)
T1 chain: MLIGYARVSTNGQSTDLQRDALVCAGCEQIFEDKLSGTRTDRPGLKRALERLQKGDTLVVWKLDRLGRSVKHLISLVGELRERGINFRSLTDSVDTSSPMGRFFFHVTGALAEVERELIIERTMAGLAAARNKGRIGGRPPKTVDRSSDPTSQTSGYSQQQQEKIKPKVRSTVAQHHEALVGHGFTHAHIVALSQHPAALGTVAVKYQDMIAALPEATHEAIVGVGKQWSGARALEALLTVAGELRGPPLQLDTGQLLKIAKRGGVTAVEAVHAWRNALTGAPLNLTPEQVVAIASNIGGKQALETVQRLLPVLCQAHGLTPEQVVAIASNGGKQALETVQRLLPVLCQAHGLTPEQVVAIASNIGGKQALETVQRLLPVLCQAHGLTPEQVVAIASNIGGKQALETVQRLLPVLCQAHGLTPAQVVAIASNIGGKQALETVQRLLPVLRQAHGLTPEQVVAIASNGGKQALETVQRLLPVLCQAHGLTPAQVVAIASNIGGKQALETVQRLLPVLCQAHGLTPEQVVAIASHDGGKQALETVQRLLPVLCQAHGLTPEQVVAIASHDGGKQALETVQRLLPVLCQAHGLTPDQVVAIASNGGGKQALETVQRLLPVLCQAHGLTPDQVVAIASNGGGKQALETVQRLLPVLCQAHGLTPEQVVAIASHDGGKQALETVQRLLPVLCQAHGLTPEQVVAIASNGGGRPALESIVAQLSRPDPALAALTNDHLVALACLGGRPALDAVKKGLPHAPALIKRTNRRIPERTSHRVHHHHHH

T2: pN-TALER IV-1-EE2 (GinL7C7-EE2-TALE13) (synthetic)
T2 chain: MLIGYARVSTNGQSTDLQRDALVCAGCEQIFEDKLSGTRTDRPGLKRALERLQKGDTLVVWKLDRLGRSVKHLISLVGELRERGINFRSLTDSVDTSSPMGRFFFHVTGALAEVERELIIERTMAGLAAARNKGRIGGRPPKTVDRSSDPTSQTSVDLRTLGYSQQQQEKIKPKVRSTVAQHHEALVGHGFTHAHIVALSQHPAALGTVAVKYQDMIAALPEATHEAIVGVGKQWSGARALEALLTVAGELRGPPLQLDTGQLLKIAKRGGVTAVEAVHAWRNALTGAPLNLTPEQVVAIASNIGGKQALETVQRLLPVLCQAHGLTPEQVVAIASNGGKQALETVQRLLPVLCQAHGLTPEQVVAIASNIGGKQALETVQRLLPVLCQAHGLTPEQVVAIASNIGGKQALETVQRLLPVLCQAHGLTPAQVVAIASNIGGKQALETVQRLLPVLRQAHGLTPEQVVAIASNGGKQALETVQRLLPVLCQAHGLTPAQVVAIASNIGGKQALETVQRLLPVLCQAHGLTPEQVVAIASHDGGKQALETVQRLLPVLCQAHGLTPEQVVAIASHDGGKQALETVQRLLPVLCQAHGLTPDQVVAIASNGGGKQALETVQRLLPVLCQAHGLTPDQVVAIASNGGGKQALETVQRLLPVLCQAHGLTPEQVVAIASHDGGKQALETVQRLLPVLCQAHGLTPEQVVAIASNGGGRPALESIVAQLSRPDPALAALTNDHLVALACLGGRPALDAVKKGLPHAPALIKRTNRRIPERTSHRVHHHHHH

T3: sN-TALER IV-12 (synthetic)
T3 chain: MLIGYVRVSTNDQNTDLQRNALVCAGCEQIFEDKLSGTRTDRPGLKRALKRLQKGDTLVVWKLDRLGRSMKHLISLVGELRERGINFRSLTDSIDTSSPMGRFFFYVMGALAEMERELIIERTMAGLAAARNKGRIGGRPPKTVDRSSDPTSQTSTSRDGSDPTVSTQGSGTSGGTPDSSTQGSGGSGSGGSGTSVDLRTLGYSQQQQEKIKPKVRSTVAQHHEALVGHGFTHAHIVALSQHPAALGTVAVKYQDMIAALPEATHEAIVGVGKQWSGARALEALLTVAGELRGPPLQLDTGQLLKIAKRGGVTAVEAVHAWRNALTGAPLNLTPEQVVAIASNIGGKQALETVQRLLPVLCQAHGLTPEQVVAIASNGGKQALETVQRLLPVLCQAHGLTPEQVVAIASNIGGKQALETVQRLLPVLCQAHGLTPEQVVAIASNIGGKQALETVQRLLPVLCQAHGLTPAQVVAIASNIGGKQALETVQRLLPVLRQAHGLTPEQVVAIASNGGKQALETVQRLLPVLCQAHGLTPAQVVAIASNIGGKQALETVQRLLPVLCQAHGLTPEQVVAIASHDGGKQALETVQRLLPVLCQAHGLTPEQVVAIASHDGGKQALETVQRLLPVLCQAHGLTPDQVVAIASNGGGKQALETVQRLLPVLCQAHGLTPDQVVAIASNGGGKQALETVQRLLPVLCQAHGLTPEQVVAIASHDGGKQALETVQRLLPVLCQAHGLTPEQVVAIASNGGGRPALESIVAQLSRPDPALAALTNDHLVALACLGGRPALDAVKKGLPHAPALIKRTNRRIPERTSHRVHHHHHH

T4: pN-TALER IV-12 (synthetic)
T4 chain: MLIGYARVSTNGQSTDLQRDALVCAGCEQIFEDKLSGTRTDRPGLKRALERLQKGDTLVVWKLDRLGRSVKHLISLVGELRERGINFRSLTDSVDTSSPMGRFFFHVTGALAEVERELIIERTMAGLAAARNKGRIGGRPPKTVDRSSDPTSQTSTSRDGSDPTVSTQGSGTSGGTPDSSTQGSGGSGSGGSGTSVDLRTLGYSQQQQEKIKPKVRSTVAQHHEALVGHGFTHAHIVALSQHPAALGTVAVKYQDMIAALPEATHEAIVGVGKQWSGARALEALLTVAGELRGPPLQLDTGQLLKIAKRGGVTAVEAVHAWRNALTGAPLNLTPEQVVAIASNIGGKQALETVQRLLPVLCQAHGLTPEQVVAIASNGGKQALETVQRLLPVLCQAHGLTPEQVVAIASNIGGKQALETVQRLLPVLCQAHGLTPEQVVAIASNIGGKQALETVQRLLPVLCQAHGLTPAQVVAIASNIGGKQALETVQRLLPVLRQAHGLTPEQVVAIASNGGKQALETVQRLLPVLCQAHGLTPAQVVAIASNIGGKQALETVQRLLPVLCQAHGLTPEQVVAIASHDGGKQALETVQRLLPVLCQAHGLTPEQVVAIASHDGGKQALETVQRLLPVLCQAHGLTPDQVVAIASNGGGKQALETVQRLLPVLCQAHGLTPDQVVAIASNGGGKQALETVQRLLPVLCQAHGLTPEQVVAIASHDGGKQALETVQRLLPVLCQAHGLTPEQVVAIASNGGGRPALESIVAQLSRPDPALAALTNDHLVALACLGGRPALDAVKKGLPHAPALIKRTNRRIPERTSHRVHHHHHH


Key:
Assay in all cases: cell_activity; E. coli
pN-TALER N3.2 = molecular target: T1, pN-TALER N3.2
Procedure: (§1) The co-transformed bacteria were plated on media with chloramphenicol, kanamycin, and X-gal then incubated at 37° C. for 18 to 36 hours. Control samples consisted of transformations using the reporter construct alone. Control transformants were similarly plated. The bacterial transformation protocol was either heat shock or electroporation per standard molecular biology techniques.
For each of these N-TALER chimera expression constructs, from one to three independent clones were selected for plasmid purification. These N-TALER chimera expression constructs were co-transformed with five of the N-TALER reporter constructs, as indicated in Table 15. […] In contrast to the result for pN-TALER N4.2.2, the chimera sN-TALER N4.2.2, with the same truncation point but a specific recombinase catalytic domain, reporters with 20, 24, or 40 bp of TALER central sequence length were efficiently recombined (score of 1) while reporters with 30 or 50 bp of TALER central sequence length were not recombined (score of 5). For the chimera sN-TALER N4.2, reporters with 20, 24, or 40 bp of TALER central sequence length were efficiently recombined (score of 1); the reporter with 30 bp of TALER central sequence length was poorly recombined (score of 3); and the reporter with 50 bp of TALER central sequence length was not recombined (score of 5). For the chimera pN-TALER N4.2, the recombination efficiency on the reporters tested varied from intermediate (scores of 3 and 4) to none (score of 5). […] In contrast to the result for sN-TALER N3.2, the chimera pN-TALER N3.2, with the same truncation point but a permissive recombinase catalytic domain, recombination efficiency on the reporters tested varied from efficient (scores of 1.5, 2, and 3) to none (score of 5). For both chimeras sN-TALER V.2 and pN-TALER V.2, there was efficient recombination (scores of 1, 1.5, and 2) of the 5 N-TALER reporter constructs tested.

[1] = molecular target: T2, pN-TALER IV-1-EE2 (GinL7C7-EE2-TALE13); details: tags: 6-His
Procedure: as §1, with “To test for recombination, E. coli DH5alpha cells were co-transformed with different combinations of TALER expression construct and TALER reporter construct pairs (Tables 6 and 7). The N-TALER expression and reporter constructs were in an approximate 1:1 mass ratio during the transformation. The co-transformed” for “The co-transformed”
Two additional N-TALERs, based on N-TALER IV-1, were constructed wherein the GinH106Y recombinase catalytic domain was replaced with either the GinL7C7-EE2 catalytic domain or the GinL7C7-EE3 permissive recombinase catalytic domain. These N-TALERs were labeled pN-TALER IV-1-EE2 (SEQ ID NO:41) and pN-TALER IV-1-EE3 (SEQ ID NO:45), respectively. pN-TALER IV-1-EE2 was tested in combination with seventeen N-TALER reporter constructs and pN-TALER IV-1-EE3 was tested with three reporter constructs (Table 10).

sN-TALER IV-12 = molecular target: T3, sN-TALER IV-12
Procedure: as §1, with “To test for recombination, E. coli DH5alpha cells were co-transformed with different combinations of TALER expression construct and TALER reporter construct pairs (Tables 6 and 7). The N-TALER expression and reporter constructs were in an approximate 1:1 mass ratio during the transformation. The co-transformed” for “The co-transformed”
(§2) The N-TALER expression constructs representing the N-TALER chimeras with varying linker lengths were co-transformed with N-TALER reporter constructs with TALER central sequence lengths of 18, 20, 24, 30, 40, and 50 bp (Table 13). […] Recombination did occur, but was less efficient with the pN-TALER IV-14 (linker length of 71 amino acids) with each of the N-TALER reporters tested.

pN-TALER IV-12 = molecular target: T4, pN-TALER IV-12
Procedure: as §1, with “To test for recombination, E. coli DH5alpha cells were co-transformed with different combinations of TALER expression construct and TALER reporter construct pairs (Tables 6 and 7). The N-TALER expression and reporter constructs were in an approximate 1:1 mass ratio during the transformation. The co-transformed” for “The co-transformed”
as §2

Row | Binder | activity (pN-TALER N3.2) | activity [1] | activity (sN-TALER IV-12) | activity (pN-TALER IV-12)
1 | Gin20TALE+5 (dsDNA) DNA 1: AGAAGGTATTTATATATTATCCAAAACCATGGTTTACAGGACTATATAAATACCTTCT DNA 2: AGAAGGTATTTATATAGTCCTGTAAACCATGGTTTTGGATAATATATAAATACCTTCT | 1.5 score | 1 score | – | –
2 | Gin20TALE+15 (dsDNA) DNA 1: AGAAGGTATTTATATAGGCACACATGTTATCCAAAACCATGGTTTACAGGACGTTCACACGGTATATAAATACCTTCT DNA 2: AGAAGGTATTTATATACCGTGTGAACGTCCTGTAAACCATGGTTTTGGATAACATGTGTGCCTATATAAATACCTTCT | – | – | 1 score | 1 score
